Test results: US20100092460A1 (Ablynx, published 2010)

T1: recombinant human CXCL11/I-TAC (human, UniProt O14625 22-94, biotinylated in the ELISA; 125I label in the radioligand assays)
T1 sequence (looked up): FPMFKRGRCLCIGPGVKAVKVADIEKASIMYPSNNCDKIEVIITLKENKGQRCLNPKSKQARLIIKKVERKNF


Key:
[1] = target: T2, recombinant human CCL2/MCP1 (human, UniProt P13500 24-99, 125I label in the radioligand assays); experiment: ELISA, periplasmic extract on coated CCL2, anti-myc detection
T2 construct: Immunogen and selection antigen was the Mucin stalk Chimera (R&D 979-MC/CF)
T2 sequence (P13500 24-99 limits assumed): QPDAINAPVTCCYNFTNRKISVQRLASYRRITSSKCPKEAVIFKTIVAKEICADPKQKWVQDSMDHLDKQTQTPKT

[2] = target: T1, recombinant human CXCL11/I-TAC; experiment: inhibition of 125I-CXCL11 binding to hCXCR3 (HEK293T cells), 10x diluted periplasm
[3] = target: T1, recombinant human CXCL11/I-TAC; experiment: inhibition of 125I-CXCL11 binding to hCXCR3 (HEK293T cells), 10x diluted periplasm; ELISA grade at the label

Row | binding result [1] | binding result [2] | Binder | other results
1 |  | binds | Nanobody 11C7 (VHH, llama VHH against CXCL11; not shown: C-terminal c-myc tag and (His)6 tag coded by the vector) VHH: EVQLVESGGGLVQAGGSLRLSCAAASGGTFTKQTISWFRQAPGKDREFVAAQWWSGLSTYFAEYADSVKGRFTISRDNAKNTAYLEMNSLKFEDTAVYYCAAGLGVVRTLIRRASSYDYWGQGTQVTVSS | 
2 |  | binds | Nanobody 11A1 (VHH, llama VHH against CXCL11; not shown: C-terminal c-myc tag and (His)6 tag coded by the vector) VHH: EVQLVESGGGLVQAGGSLRLSCAASGFTLDDYAIGWFRQAPGKEREGVSCISSIDGDTVYADSVKGRFTASSDNAKNTAYLQMNSLKPEDTAVYYCAAGQGLLTAQALRWESYDYWGQGTQVTVSS | 
3 | binds |  | Nanobody 8E7 (VHH, llama VHH against CCL2; not shown: C-terminal c-myc tag and (His)6 tag coded by the vector) VHH: EVQLVESGGGLVQAGGSLRLSCAASGGTFSSYRMGWFRQAPEKEREFVAVITRSGGSHSYSNSVKGRFTISRDNAKNTVYLQMNSLKPEDTAVYYCAAGAQMGWAEASTYDYWGQGTQVTVSS | 
4 | binds |  | Nanobody 15H7 (VHH, llama VHH against CCL2; not shown: C-terminal c-myc tag and (His)6 tag coded by the vector) VHH: EVQLVKSGGGLVQAGGSLRLSCAASGRTFSSYRMGWFRQAPEKEREFVALISRSGGTTFYSNSVKGRFTISRDNAKNTVYLQMNSLEPEDTAVYYCAAGAQMGWAEASTYDYWGQGTQVTVSS | 
5 | binds |  | Nanobody 15F7 (VHH, llama VHH against CCL2; not shown: C-terminal c-myc tag and (His)6 tag coded by the vector) VHH: EVQLVESGGGLVQAGGSLRLPCAASGRTFSSYRMGWFRQAPEKEREFVAVISRSGGDTFYSSSVKGRFTISRDNAKNTVYLQMNSLKPEDTAVYYCAAGAQMGWAEASTYDYWGQGTQVTVSS | 
6 | binds |  | Nanobody 8D7 (VHH, llama VHH against CCL2; not shown: C-terminal c-myc tag and (His)6 tag coded by the vector) VHH: EVQLVESGGGLVQAGGSLRLSCAASGRTFSSYRMGWFRQAPEKEREFVALITRSGGTTFYSNSVKGRFTISRDNAKNTVYLQMNSLEPEDTAVYYCAAGAQMGWAEASTYDYWGQGTQVTVSS | 
7 | binds |  | Nanobody 8E5 (VHH, llama VHH against CCL2; not shown: C-terminal c-myc tag and (His)6 tag coded by the vector) VHH: EVQLVESGGGLVQAGGSLRLSCAASGGTFSSYRMAWFRQTPGKEREFVTLISRSGGTTDYTDSVKGRFTISRDNAKNTVYLQMNSLKPEDTAVYYCAAAGSMGWNHFREYDYWGQGTQVTVSS | 
8 | binds |  | Nanobody 8E1 (VHH, llama VHH against CCL2; not shown: C-terminal c-myc tag and (His)6 tag coded by the vector) VHH: EVQLVESGGGLVQAGGSLRLSCAASGLTFSTYPMGWFRQAPGKEREFVAAINSGGSYTYYADSVKGRFTISRDNAVNTIYLQMNSLKPEDTAVYSCAVKIYSGSYSSPPGYNHWGQGTQVTVSS | 
9 |  | binds | Nanobody 11D10 (VHH, llama VHH against CXCL11; not shown: C-terminal c-myc tag and (His)6 tag coded by the vector) VHH: EVQLVESGGGLVQAGGSLRLSCAASGFTIDDYAIGWFRQAPGKEREGVSCISSSDGSTYYADSVKGRFTISSDNAKNTVYLQMNSLKPEDTAVYYCAAAQGLVVTEMFVGRSYDYWGQGTQVTVSS | 
10 |  | binds | Nanobody 11D5 (VHH, llama VHH against CXCL11; not shown: C-terminal c-myc tag and (His)6 tag coded by the vector) VHH: EVQLVESGGGLVQPGGSLRLSCAASRSGLSINAMGWFRQAPGKQRELVASITRGGPTIYADSVKGRFTISGDNAKNTVYLQMNSLKPEDTAVYYCNALIDYGLGFPIEYWGQGTQVTVSS | 

The remaining lines, values behind:

Row | Binder | binding result [1] | binding result [2] | other results
11 | Nanobody 8A5 (VHH, llama VHH against CCL2; not shown: C-terminal c-myc tag and (His)6 tag coded by the vector) VHH: QVQLVESGGGLVQAGGSLALSCAASGIAFSIFDMAWFRQTPGKEREAVARISHGGGKDYLDSVKGRFTISRDNAKNTVTLQMTSLKPEDTAVYYCNAKNSFRNLWGQGTQVTVSS | binds |  | 
12 | Nanobody 8B2 (VHH, llama VHH against CCL2; not shown: C-terminal c-myc tag and (His)6 tag coded by the vector) VHH: EVQLVESGGGLVQAGGSLRLSCAASGGTFASYGMGWFRQYPGKEREFVAAISRSGDSTYYADSVKGRFTISRDNAKNTVYLQMNSLKPEDTAVYYCAAGRFIPQLSAYDYWGQGTQVTVSS | binds |  | 
13 | Nanobody 11F7 (VHH, llama VHH against CXCL11; not shown: C-terminal c-myc tag and (His)6 tag coded by the vector) VHH: EVQLVESGGGLVQAGGSLRLSCAASGGTFTKQTMGWFRQTPGKDREFVAVQWWTGLSTYSAEYADSVKGRFTISRDNAKNTAYLQMNSLKFEDTAVYYCAAGLGVVRTFIRRASSYDDWGQGTQVTVSS |  | binds | 
14 | Nanobody 11D1 (VHH, llama VHH against CXCL11; not shown: C-terminal c-myc tag and (His)6 tag coded by the vector) VHH: EVQLVESGGGLVQAGGSLRLSCAASGFTLNDYAIGWFRQAPGKEREGVSLISSDDGSTYYADSVKGRFTISSDNAKNTVYLQMNSLKPEDTAVYYCAAAQGLLLLSLWVPTQYDYWGQGTQVTVSS |  | binds | 
15 | Nanobody 11G8 (VHH, llama VHH against CXCL11; not shown: C-terminal c-myc tag and (His)6 tag coded by the vector) VHH: EVQLVESGGGLVQAGGSLRLSCAASGRTFSSYAMGWFRQAPGKEQEFVAAISWSGGSTYYADSVKGRFTISRDNAKNTVYLQMNSLKPEDTAVYYCAAHDVDDDESPYYSGGYYRALYDYWGQGTQVTVSS |  | binds | 
16 | Nanobody 15H3 (VHH, llama VHH against CCL2; not shown: C-terminal c-myc tag and (His)6 tag coded by the vector) VHH: EVQLVESGGGLVQAGGSLRLSCAASGGTFSNYAMGWFRQAPEKEREFVAAVIWRGGSTYYADSVKGRFTISRDNARNTVYLQMNSLKPEDTAVYYCAADLLGNSDYEPSSGFGSWGQGTQVTVSS | binds |  | 
17 | Nanobody 8D5 (VHH, llama VHH against CCL2; not shown: C-terminal c-myc tag and (His)6 tag coded by the vector) VHH: EVQLVESGGGLVQAGGSLRLSCAASGRTFSNYAMDWFRQAPGKEREFVAAISKSDGSTYYADSVKGRFTISRDNAKNTVYLQMNSLKPEDTAVYYCAAEGDSSPMGGVTYDYWGQGTQVTVSS | binds |  | 
18 | Nanobody 11B8 (VHH, llama VHH against CXCL11; not shown: C-terminal c-myc tag and (His)6 tag coded by the vector) VHH: EVQLVESGGGLVQPGGSLRLSCAASGFTLDDYVIGWFRQAPGKEREGVSGISSSDGSTYYADSVKGRFTISRDNAKNTVYLQMNSLKPEDTAVYYCAAGMGVLRLWVLSKLSYDYWGQGTQVTVSS |  | binds | 
19 | Nanobody 11E5 (VHH, llama VHH against CXCL11; not shown: C-terminal c-myc tag and (His)6 tag coded by the vector) VHH: EVQLVESGGGLVQAGGSLRLSCAASGFTFDDYAIGWFRQAPGKEREGVSWISSSDKDTYYADSVKGRFTISSDNAKNTVYLQMNSLKPEDTAVYYCAAGAGLLIATIWTTQMYDYWGQGTQVTVSS |  | binds | 
20 | Nanobody 8D1 (VHH, llama VHH against CCL2; not shown: C-terminal c-myc tag and (His)6 tag coded by the vector) VHH: EVQLVESGGGLVQPGGSLRLSCAASGFNLDDYAIGWFRQAPGKEREGVACASSTDGSTAYADSVKGRFTVSRDNAKNTVYLQMNSLKPEDTAVYYCAADPSDPFCPGLYYGMDYWGKGTLVTVSS | binds |  | 
21 | Nanobody 11D2 (VHH, llama VHH against CXCL11; also called 11G1; 11H1; not shown: C-terminal c-myc tag and (His)6 tag coded by the vector) VHH: EVQLVESGGGLVQAGGSLRLSCAASGFSFDDYAIGWFRQAPGKEREGVSLISSSDGSTYYADSVKGRFTISSDNAKNTVYLQMNSLKPEDTAVYYCAAGQGLLRAQALRWESYDYWGQGTQVTVSS |  |  | binding result [3]: binds
22 | Nanobody 8A7 (VHH, llama VHH against CCL2; not shown: C-terminal c-myc tag and (His)6 tag coded by the vector) VHH: EVQLVESGGGLVQAGGSLRLSCAASGRTFSSYRMGWFRQAPEKEREFVAVISRSGGSTFYSNSVKGRFTISRDNAKNTVYLQMNSLKPEDTAVYYCAAGAQMGWAEASTYDYWGQGTQVTVSS | binds |  | 
23 | Nanobody 15H4 (VHH, llama VHH against CCL2; not shown: C-terminal c-myc tag and (His)6 tag coded by the vector) VHH: EVQLVESGGGLVQAGGSLRLSCAASGLTFSTYPMGWFRQAPGKEREFVAAINSGGSSTYYADSVKGRFTISRDNAKNTVYLQMNSLKPEDTAVYSCAVKIYSGSYSSPPGYNYWGQGTQVTVSS | binds |  | 
